Target: ZnF domain of A. thaliana SPL5 (Ser60-Leu127) (A. thaliana) (UniProt Q9S758)
Assay: ITC

Chain of ZnF domain of A. thaliana SPL5 (Ser60-Leu127) (A. thaliana) (Q9S758 60-127): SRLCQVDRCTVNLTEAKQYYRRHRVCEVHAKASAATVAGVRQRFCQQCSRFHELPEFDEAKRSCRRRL

Substance: SAP05 (mature, Ala33-Lys135) of Aster Yellows phytoplasma strain Witches Broom (natural protein)
- Kd: 450 nM
- stoichiometry N: 1
